B1: ATE1 (parent)
chain: DYFPSEDFYRCGYCKNESGSRSNG
B2: FADS1 (parent)
chain: LNFQIEHHLFPTMPRHNYHKVAPL

Variants of: B1
Experiment: protein stability index of a GFP-peptide fusion (GPS, HEK-293T) (PSI 1-6); higher = more stable
Conditions: c terminus: a fixed tail appended
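Also: lentivirally expressed fusions sorted by FACS into six bins by GFP to DsRed ratio, PSI derived from sequencing read proportions per bin multiplied by bin number.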

Protein stability index, by site and new letter:
Y9: I 1.88, S 2.36, D 2.42, F 1.92, V 2.21, A 2.99, T 2.98, L 2.01, W 2.46, P 2.57, H 1.82, K 2.37, Q 2.14, N 2.18, E 2.43, M 2.69
R10: E 2.6, G 2.35, F 1.98, S 2.2, T 2.2, Y 2.99, A 2.71, M 2.21, V 3.04, K 2.44, W 2.33, I 1.88
C14: I 3.97, G 3.81, A 4.24, N 3.4, S 3.94, K 3.65, E 4.6, P 3.53, M 4.25, W 3.43, Q 3.69, T 4.36, D 4.47, V 4.1
D7: F 1.17, N 2.28, I 1.11, K 2.53, T 2.15, Q 3.11, H 1.76, S 2.24, G 1.85, A 1.63, P 2.71, Y 2.85, W 1.7, L 2.29
G24: Q 1.93, N 2.09, H 2.04, Y 2.13, I 2.34, M 1.89, L 2.15, V 1.75, F 1.92, P 3, K 2.83, E 2.67, A 1.88, R 2.5
P4: V 1.18, I 1.45, D 2.07, T 2.26, Q 2.77, E 2.21, H 1.29, F 1.43, R 1.79, M 2.59, W 1.08
E6: K 1.35, G 1.65, S 1.8, R 1.53, M 2.38, P 2.24, Q 1.92, Y 1.74, C 1.85, W 2.04, N 1.68, A 1.81, D 1.92
G12: N 2.69, Q 2.64, V 2.4, F 3.18, T 2.99, L 2.63, K 2.68, C 2.01, A 3.25, S 3.15, P 1.93, I 2.84, M 2.77, R 4.05
S5: A 2.19, D 2.46, T 2.15, M 1.42, R 1.7, Y 2.83, F 2.01, H 1.98, K 2.02, N 1.61, C 1.52, I 1.88, L 1.61
F3: T 2.45, G 3.35, R 2.58, Q 3.12, L 1.83, H 1.8, I 2.27, Y 2.14, A 2.45, P 3.21, N 2.08, D 2.61, W 2.85, M 2.99, C 1.49
S20: N 1.79, H 2.1, E 2.5, Y 1.75, K 2.36, L 1.33, V 2.25, F 1.72, I 2.01, R 2.07, P 2.36, M 2.51, C 1.86, A 2.83, Q 1.94
E17: K 2.33, N 2, F 1.71, T 2.77, H 2.14, R 2.78, C 1.63, G 1.96, P 1.37, D 2.44, I 1.38, S 1.83, Q 1.9
F8: L 2.19, M 2.56, Q 2.81, C 2.54, K 2.49, T 2.63, A 2.32, Y 1.93, I 2.35, R 2.91, P 3, H 2.19
G19: K 1.95, T 2.04, S 2.15, F 1.56, W 3.29, I 2.65, N 1.84, E 2.52, R 1.76, C 1.93, L 2, A 1.61, V 2.14, Q 2.9, Y 1.6, D 2.45
Y2: P 2.64, H 2.37, D 2.53, N 2.36, W 1.24, M 1.36, E 2.63, L 2.43, K 2.38, R 4.56, G 2.56, S 2.44, F 1.82, T 2.63, A 3.05
C11: W 4.12, S 3.54, P 4.15, D 4.21, R 3.9, I 3.83, Y 3.42, A 3.73
D1: M 2.06, H 2.58, S 2.15, R 1.74, C 2.26, V 2.58, Q 1.89, T 2.24, A 2.3, N 2, K 2.28, L 2.38, P 2.35
N16: T 1.97, Y 2.43, P 2.23, D 2.79, L 1.53, M 2.62, C 1.47, Q 1.77, A 3.01, H 2, V 1.74, R 2.1, W 1.41, I 1.74
K15: E 2.46, W 2.25, Y 2.89, V 2.18, R 1.17, I 2.18, H 1.64, C 2.17, D 2.74, M 3.08, L 1.82, S 2.42, A 1.59, T 1.85
Y13: P 3.75, S 3.69, K 3.5, G 3.4, A 2.76, E 4.41, F 2.4, T 3.93, L 2.03, Q 3.52, H 3.21, C 2.18, W 3.73, N 3.83
N23: H 2.16, K 2.51, P 1.91, E 2.29, F 1.26, C 1.28, V 1.25, S 2.32, T 2.1, W 2.6, R 1.76, D 2.1, L 2.65, Q 2.53, I 1.52
S22: Y 2.42, H 2.01, M 3.37, F 1.58, C 2.17, L 1.57, N 2.07, P 2.46, V 2.12, E 2.52, K 2.02, R 1.68
R21: D 3.09, T 2.24, W 2.03, K 2.61, E 2.44, S 2.22, G 2.79, Y 1.79, Q 2.67, F 2.39, P 2.69, V 2.5, I 1.79, N 2.47, C 2.83
S18: R 1.68, C 1.08, E 2.53, Y 1.69, T 2.07, K 2.33, I 1.53, L 1.84, Q 2.37, F 3.12, M 1.24

Variants of: B2
Experiment: as above
Conditions: c terminus: a fixed tail appended

Protein stability index of substitutions, site by site:
Y18: R 1.64
N2: H 2.37
I5: W 1.43
A22: Y 2.21, M 3.28
H7: K 2.75, S 1.81
L9: V 2.37
V21: E 2.32
F3: A 2.58
R15: N 2.43
